In article PMC6442606 (Proceedings of the National Academy of Sciences of the …, 2019):

Tests used:
native gel or EMSA = molecular target: the molecule itself; experiment: native gel or EMSA
[1] = molecular target: Hilyte Fluor 488-labeled Aβ1-42 (UniProt P05067 672-713, Hilyte Fluor 488 label (position not given)); experiment: native gel or EMSA
biotinylated Aβ1-42 = biotinylated Aβ1-42 (UniProt P05067 672-713, biotin (position not given)); experiment: pull-down
Sequence of biotinylated Aβ1-42 (P05067 672-713): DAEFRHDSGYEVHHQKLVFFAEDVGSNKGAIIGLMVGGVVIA

Sequence of Hilyte Fluor 488-labeled Aβ1-42 (P05067 672-713): as above

B1: transformed α2M (α2M*) (natural protein, human, UniProt P01023 24-1474, looked up)
chain: SVSGKPQYMVLVPSLLHTETTEKGCVLLSYLNETVTVSASLESVRGNRSLFTDLEAENDVLHCVAFAVPKSSSNEEVMFLTVQVKGPTQEFKKRTTVMVKNEDSLVFVQTDKSIYKPGQTVKFRVVSMDENFHPLNELIPLVYIQDPKGNRIAQWQSFQLEGGLKQFSFPLSSEPFQGSYKVVVQKKSGGRTEHPFTVEEFVLPKFEVQVTVPKIITILEEEMNVSVCGLYTYGKPVPGHVTVSICRKYSDASDCHGEDSQAFCEKFSGQLNSHGCFYQQVKTKVFQLKRKEYEMKLHTEAQIQEEGTVVELTGRQSSEITRTITKLSFVKVDSHFRQGIPFFGQVRLVDGKGVPIPNKVIFIRGNEANYYSNATTDEHGLVQFSINTTNVMGTSLTVRVNYKDRSPCYGYQWVSEEHEEAHHTAYLVFSPSKSFVHLEPMSHELPCGHTQTVQAHYILNGGTLLGLKKLSFYYLIMAKGGIVRTGTHGLLVKQEDMKGHFSISIPVKSDIAPVARLLIYAVLPTGDVIGDSAKYDVENCLANKVDLSFSPSQSLPASHAHLRVTAAPQSVCALRAVDQSVLLMKPDAELSASSVYNLLPEKDLTGFPGPLNDQDNEDCINRHNVYINGITYTPVSSTNEKDMYSFLEDMGLKAFTNSKIRKPKMCPQLQQYEMHGPEGLRVGFYESDVMGRGHARLVHVEEPHTETVRKYFPETWIWDLVVVNSAGVAEVGVTVPDTITEWKAGAFCLSEDAGLGISSTASLRAFQPFFVELTMPYSVIRGEAFTLKATVLNYLPKCIRVSVQLEASPAFLAVPVEKEQAPHCICANGRQTVSWAVTPKSLGNVNFTVSAEALESQELCGTEVPSVPEHGRKDTVIKPLLVEPEGLEKETTFNSLLCPSGGEVSEELSLKLPPNVVEESARASVSVLGDILGSAMQNTQNLLQMPYGCGEQNMVLFAPNIYVLDYLNETQQLTPEIKSKAIGYLNTGYQRQLNYKHYDGSYSTFGERYGRNQGNTWLTAFVLKTFAQARAYIFIDEAHITQALIWLSQRQKDNGCFRSSGSLLNNAIKGGVEDEVTLSAYITIALLEIPLTVTHPVVRNALFCLESAWKTAQEGDHGSHVYTKALLAYAFALAGNQDKRKEVLKSLNEEAVKKDNSVHWERPQKPKAPVGHFYEPQAPSAEVEMTSYVLLAYLTAQPAPTSEDLTSATNIVKWITKQQNAQGGFSSTQDTVVALHALSKYGAATFTRTGKAAQVTIQSSGTFSSKFQVDNNNRLLLQQVSLPELPGEYSMKVTGEGCVYLQTSLKYNILPEKEEFPFALGVQTLPQTCDEPKAHTSFQISLSVSYTGSRSASNMAIVDVKMVSGFIPLKPTVKMLERSNHVSRTEVSSNHVLIYLDKVSNQTLSLFFTVLQDVPVRDLKPAIVKVYDYYETDEFAIAEYNAPCSKDLGNA
modifications: thioester bond reacted (NH4Cl)
stoichiometry N (native gel or EMSA): 4

B2: hypochlorite-modified α2M (natural protein, human, UniProt P01023 24-1474, looked up)
chain: B1 chain
modifications: hypochlorite (NaOCl)-modified; residues not stated
stoichiometry N (native gel or EMSA): 2

B3: pregnancy zone protein (PZP) (natural protein, human, UniProt P20742 26-1482, looked up)
chain: TEPQYMVLVPSLLHTEAPKKGCVLLSHLNETVTVSASLESGRENRSLFTDLVAEKDLFHCVSFTLPRISASSEVAFLSIQIKGPTQDFRKRNTVLVLNTQSLVFVQTDKPMYKPGQTVRFRVVSVDENFRPRNELIPLIYLENPRRNRIAQWQSLKLEAGINQLSFPLSSEPIQGSYRVVVQTESGGRIQHPFTVEEFVLPKFEVKVQVPKIISIMDEKVNITVCGEYTYGKPVPGLATVSLCRKLSRVLNCDKQEVCEEFSQQLNSNGCITQQVHTKMLQITNTGFEMKLRVEARIREEGTDLEVTANRISEITNIVSKLKFVKVDSHFRQGIPFFAQVLLVDGKGVPIPNKLFFISVNDANYYSNATTNEQGLAQFSINTTSISVNKLFVRVFTVHPNLCFHYSWVAEDHQGAQHTANRVFSLSGSYIHLEPVAGTLPCGHTETITAHYTLNRQAMGELSELSFHYLIMAKGVIVRSGTHTLPVESGDMKGSFALSFPVESDVAPIARMFIFAILPDGEVVGDSEKFEIENCLANKVDLSFSPAQSPPASHAHLQVAAAPQSLCALRAVDQSVLLMKPEAELSVSSVYNLLTVKDLTNFPDNVDQQEEEQGHCPRPFFIHNGAIYVPLSSNEADIYSFLKGMGLKVFTNSKIRKPKSCSVIPSVSAGAVGQGYYGAGLGVVERPYVPQLGTYNVIPLNNEQSSGPVPETVRSYFPETWIWELVAVNSSGVAEVGVTVPDTITEWKAGAFCLSEDAGLGISSTASLRAFQPFFVELTMPYSVIRGEVFTLKATVLNYLPKCIRVSVQLKASPAFLASQNTKGEESYCICGNERQTLSWTVTPKTLGNVNFSVSAEAMQSLELCGNEVVEVPEIKRKDTVIKTLLVEAEGIEQEKTFSSMTCASGANVSEQLSLKLPSNVVKESARASFSVLGDILGSAMQNIQNLLQMPYGCGEQNMVLFAPNIYVLNYLNETQQLTQEIKAKAVGYLITGYQRQLNYKHQDGSYSTFGERYGRNQGNTWLTAFVLKTFAQARSYIFIDEAHITQSLTWLSQMQKDNGCFRSSGSLLNNAIKGGVEDEATLSAYVTIALLEIPLPVTNPIVRNALFCLESAWNVAKEGTHGSHVYTKALLAYAFSLLGKQNQNREILNSLDKEAVKEDNLVHWERPQRPKAPVGHLYQTQAPSAEVEMTSYVLLAYLTAQPAPTSGDLTSATNIVKWIMKQQNAQGGFSSTQDTVVALHALSRYGAATFTRTEKTAQVTVQDSQTFSTNFQVDNNNLLLLQQISLPELPGEYVITVTGERCVYLQTSMKYNILPEKEDSPFALKVQTVPQTCDGHKAHTSFQISLTISYTGNRPASNMVIVDVKMVSGFIPLKPTVKMLERSSSVSRTEVSNNHVLIYVEQVTNQTLSFSFMVLQDIPVGDLKPAIVKVYDYYETDESVVAEYIAPCSTDTEHGNV
stoichiometry N (native gel or EMSA): 2
binding result [1]: binds
binding result (biotinylated Aβ1-42): binds
